Patent US20240317847A1 (Bayer, published 2024)

T1: human IL-11 (human, UniProt P20809 22-199)
T1 construct: bought from Invigate; also called hIL-11; hIL11
T1 sequence: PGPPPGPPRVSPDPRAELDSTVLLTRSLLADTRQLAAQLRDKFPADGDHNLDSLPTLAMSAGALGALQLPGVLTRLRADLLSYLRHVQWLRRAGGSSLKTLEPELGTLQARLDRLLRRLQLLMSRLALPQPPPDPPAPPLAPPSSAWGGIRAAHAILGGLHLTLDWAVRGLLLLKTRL

T2: murine IL-11 (mouse, UniProt P47873 22-199)
T2 construct: bought from Invigate; also called mIL-11; mIL11
T2 sequence: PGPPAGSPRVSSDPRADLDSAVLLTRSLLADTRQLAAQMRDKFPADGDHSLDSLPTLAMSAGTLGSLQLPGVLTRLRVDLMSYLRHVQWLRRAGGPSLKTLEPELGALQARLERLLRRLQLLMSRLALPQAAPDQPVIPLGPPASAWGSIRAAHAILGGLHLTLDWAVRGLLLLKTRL


Tests used:
human IL-11 [1] = target: T1, human IL-11; assay: SPR, antibody captured, IL-11 as analyte
Method: (§1) Antibodies were captured via anti-mouse Fc IgGs (“Mouse antibody capture kit, Order No. BR100383, Cytiva) covalently amine coupled to a Series S CM5 sensor chip (Cytiva). The amine coupling was carried out according to the manufacturer's instructions using 1-ethyl-3-(3-dimethylaminopropyl) carbodiimide hydrochloride (EDC), N-hydroxysuccinimide (NHS) and ethanolamine HCl, pH 8.5 (“Amine Coupling Kit” BR-1000-50, Cytiva.). Human IL-11 (Invigate, e.g., lot #C121021-19), and murine IL-11 (Invigate, e.g., lot #C210819-09) were used as analytes. […] Based on that experiment an IL-11 concentration range was chosen to optimally determine kinetics and affinity of anti-IL-11 antibodies in multicycle kinetics mode. The sensor surface was regenerated with glycine pH 1.7 after each antigen injection. Obtained sensorgrams were double referenced (subtraction of reference flow cell signal and buffer injection) and were fitted to a 1:1 Langmuir binding model to derive kinetic data using the Biacore T200 Evaluation software or the Biacore Insight software.
(§2) For the 2nd round of germlining, single reversions were then combined on DNA level, expressed and purified as described in Example 15, and tested by SPR as described in Example 16.

murine IL-11 [2] = target: T2, murine IL-11; assay: SPR, antibody captured, IL-11 as analyte
Method: as §1, §2

human IL-11 [3] = target: T1, human IL-11; assay: cell-based or functional assay
murine IL-11 [4] = target: T2, murine IL-11; assay: cell-based or functional assay

Row | Binder | Kd (human IL-11 [1]) [nM] | Kd (murine IL-11 [2]) [nM] | Efficacy (%), RGA (human IL-11 [3]) [%] | IC50, RGA (human IL-11 [3]) [nM] | Efficacy (%), RGA (murine IL-11 [4]) [%] | IC50, RGA (murine IL-11 [4]) [nM]
1 | TPP-27157 (antibody, V domains shown) VH: EVQLLESGGGLVQPGGSLRLSCAASGFTFSSYGMHWVRQAPGKGLEWVAVISYDGSYKYYADSVKGRFTISRDNSKNTLYLQMNSLRAEDTAVYYCAAGVPDYWGQGTLVTVSS VL: QSVLTQPPSASGTPGQRVTISCTGSSSNIGAGYDVHWYQQLPGTAPKLLIYSNNERPSGVPDRFSGSKSGTSASLAISGLRSEDEADYYCAAWDDSLSGPVFGGGTKLTVL | 5.1 | 1.1 | 51.2 | 13 | 86.4 | 1.4
2 | TPP-27159 (antibody, human IgG1, lambda, V domains shown, hIgG1, Lambda) VH: EVQLLESGGGLVQPGGSLRLSCAASGFTFSSYGMHWVRQAPGKGLEWVAVISYDGSYKYYADSVKGRFTISRDNSKNTLYLQMNSLRAEDTAVYYCAAGVPDYWGQGTLVTVSS VL: not shown | 5.4 | 1.1 | 43.2 | 19 | 82.4 | 1.9
3 | TPP-27163 (antibody, V domains shown) VH: EVQLLESGGGLVQPGGSLRLSCAASGFTFSSYGMHWVRQAPGKGLEWVAVISYDGSYKYYADSVKGRFTISRDNSKNTLYLQMNSLRAEDTAVYYCAAGVPDYWGQGTLVTVSS VL: not shown | 12 | 28 | 2.9 |  | 52.3 | 52
4 | TPP-27158 (antibody, V domains shown) VH: EVQLLESGGGLVQPGGSLRLSCAASGFTFSSYGMHWVRQAPGKGLEWVAVISYDGSYKYYADSVKGRFTISRDNSKNTLYLQMNSLRAEDTAVYYCAAGVPDYWGQGTLVTVSS VL: not shown | 5.9 | 0.4 | 55.8 | 20 | 89.9 | 1.4
5 | TPP-27160 (antibody, V domains shown) VH: EVQLLESGGGLVQPGGSLRLSCAASGFTFSSYGMHWVRQAPGKGLEWVAVISYDGSYKYYADSVKGRFTISRDNSKNTLYLQMNSLRAEDTAVYYCAAGVPDYWGQGTLVTVSS VL: QSVLTQPPSASGTPGQRVTISCSGSSSNIGSGYDVHWYQQLPGTAPKLLIYDNNERPSGVPDRFSGSKSGTSASLAISGLRSEDEADYYCAAWDDSLSGPVFGGGTKLTVL | 180 | 56 | -2.8 |  | 63.8 | 10
6 | TPP-27162 (antibody, V domains shown) VH: EVQLLESGGGLVQPGGSLRLSCAASGFTFSSYGMHWVRQAPGKGLEWVAVISYDGSYKYYADSVKGRFTISRDNSKNTLYLQMNSLRAEDTAVYYCAAGVPDYWGQGTLVTVSS VL: not shown | 7.4 | 3.2 | 36 | 91 | 77.6 | 3.3
